Here are results for 6 molecules from US20210238292A1 (VACCINEX, published 2021).

Experiment [1] concerns the target T1, mouse CCR8 expressed on 293T cells (mouse, UniProt P56484 1-353).
T1 construct: whole, on cells
T1 sequence (looked up): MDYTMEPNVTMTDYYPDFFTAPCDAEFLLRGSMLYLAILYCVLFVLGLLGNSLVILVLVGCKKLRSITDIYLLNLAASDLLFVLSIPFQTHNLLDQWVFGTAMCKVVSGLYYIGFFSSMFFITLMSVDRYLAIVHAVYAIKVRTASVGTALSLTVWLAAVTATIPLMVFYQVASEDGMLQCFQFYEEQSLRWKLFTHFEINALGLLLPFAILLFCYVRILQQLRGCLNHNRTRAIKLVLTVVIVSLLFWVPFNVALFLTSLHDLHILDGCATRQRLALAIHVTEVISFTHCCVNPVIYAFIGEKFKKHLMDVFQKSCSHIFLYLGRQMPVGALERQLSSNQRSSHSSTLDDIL
Kind of experiment: flow cytometry, MoCCR8-293T cells, fold geomean over secondary alone. In general terms: Flow cytometry measures light scatter and fluorescence of single cells or particles in a stream.

Experiment [2] concerns the target T2, human CCR8 (C-C chemokine receptor type 8) expressed on cells (human, UniProt P51685 1-355).
T2 construct: also called HuCCR8
Kind of experiment: on-cell affinity, flow cytometry on 293T cells expressing human CCR8.

Experiment [3] deals with T3, cynomolgus monkey CCR8 expressed on cells (cynomolgus monkey, UniProt G7NYJ2 1-355).
T3 construct: whole, on cells; also called cyno CCR8; CyCCR8
Kind of experiment: on-cell affinity, flow cytometry on 293T cells expressing cyno CCR8.

Experiment [4] addresses T4, Human CCR8-ECD-Fc (human).
T4 construct: also called HuCCR8-ECD-Fc; huCC8-ECD-Fc
T4 chain: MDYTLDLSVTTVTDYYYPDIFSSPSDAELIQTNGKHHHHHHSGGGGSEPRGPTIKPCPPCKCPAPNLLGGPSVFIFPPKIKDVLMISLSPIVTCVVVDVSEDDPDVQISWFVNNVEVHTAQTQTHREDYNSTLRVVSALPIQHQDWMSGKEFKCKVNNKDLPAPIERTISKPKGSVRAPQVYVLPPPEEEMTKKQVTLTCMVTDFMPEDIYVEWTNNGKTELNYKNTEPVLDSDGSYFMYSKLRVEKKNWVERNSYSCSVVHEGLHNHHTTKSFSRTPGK
Put plainly: binding to HuCCR8-ECD-Fc protein, OD450-570 nm.

The target in experiment [5] is T5, Cynomolgus CCR8-ECD-Fc (cynomolgus monkey).
T5 construct: also called CyCCR8-ECD-Fc; Cynomolgus CCR8-Fc
T5 chain: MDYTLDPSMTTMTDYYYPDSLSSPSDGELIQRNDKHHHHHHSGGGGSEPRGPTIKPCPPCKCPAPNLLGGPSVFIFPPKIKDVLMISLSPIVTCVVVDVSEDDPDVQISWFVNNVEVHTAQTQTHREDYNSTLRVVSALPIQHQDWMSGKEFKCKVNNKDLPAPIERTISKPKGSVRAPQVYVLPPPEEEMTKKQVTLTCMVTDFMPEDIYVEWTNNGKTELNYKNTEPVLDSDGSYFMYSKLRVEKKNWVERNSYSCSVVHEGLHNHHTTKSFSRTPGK
Put plainly: binding to CyCCR8-ECD-Fc protein, OD450-570 nm.

The target of experiment [6] is T3, cynomolgus monkey CCR8 expressed on …. Put plainly: on-cell affinity, flow cytometry on 293T cells expressing cyno CCR8. This is another data set of the same source.
Target sequence in this assay (G7NYJ2 entry or part of it): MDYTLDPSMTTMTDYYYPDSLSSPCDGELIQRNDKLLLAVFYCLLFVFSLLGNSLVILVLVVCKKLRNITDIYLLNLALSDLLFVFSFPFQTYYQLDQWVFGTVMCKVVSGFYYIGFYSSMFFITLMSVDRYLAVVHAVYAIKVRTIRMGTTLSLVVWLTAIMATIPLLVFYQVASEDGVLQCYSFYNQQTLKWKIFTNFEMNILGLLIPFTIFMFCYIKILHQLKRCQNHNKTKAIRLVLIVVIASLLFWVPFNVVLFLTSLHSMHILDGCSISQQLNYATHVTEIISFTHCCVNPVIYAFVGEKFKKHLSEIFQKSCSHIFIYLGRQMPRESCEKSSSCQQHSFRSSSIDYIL
The target in experiment [7] is T5, Cynomolgus CCR8-ECD-Fc. Kind of experiment: binding to CynoCCR8-ECD-Fc protein, OD450-570nm.
Experiment [8] deals with T1, mouse CCR8 expressed on 293T cells. Kind of experiment: flow cytometry, MoCCR8-293T cells, fold geomean over secondary alone. The source holds these as a separate data set.
Experiment [9] has as its target T2, human CCR8 (C-C chemokine receptor type …). Kind of experiment: on-cell affinity, flow cytometry on 293T cells expressing human CCR8. This is another data set of the same source.
For experiment [10] the target is unchanged. Put plainly: flow cytometry, HuCCR8-293T cells, fold geomean over secondary alone.
Experiment [11] addresses T4, Human CCR8-ECD-Fc. Kind of experiment: binding to HuCCR8-ECD-Fc protein, OD450-570nm.
Experiment [12] has as its target T1, mouse CCR8 expressed on 293T cells. Kind of experiment: flow cytometry, MoCCR8-293T cells, fold geomean over secondary alone. The source holds these as a separate data set.
Experiment [13] concerns the target T5, Cynomolgus CCR8-ECD-Fc. Kind of experiment: binding to CyCCR8-ECD-Fc protein, OD450-570 nm.
Experiment [14] deals with T4, Human CCR8-ECD-Fc. Kind of experiment: binding to HuCCR8-ECD-Fc protein, OD450-570 nm.
Experiment [15] addresses T3, cynomolgus monkey CCR8 expressed on …. Kind of experiment: flow cytometry, CynoCCR8-293T cells, fold geomean over secondary alone.
For experiment [16], the target named is T5, Cynomolgus CCR8-ECD-Fc. Put plainly: binding to CyCCR8-ECD-Fc protein, OD450-570 nm.
For experiment [17], the target named is T4, Human CCR8-ECD-Fc. Put plainly: binding to HuCCR8-ECD-Fc protein, OD450-570 nm.
The target of experiment [18] is T1, mouse CCR8 expressed on 293T cells. Kind of experiment: flow cytometry, MoCCR8-293T cells, fold geomean over secondary alone. This is another data set of the same source.
The target in experiment [19] is T2, human CCR8 (C-C chemokine receptor type …). Put plainly: flow cytometry competition on Raji-CCR8 cells; competitor: fluorescently-conjugated BIOLEGEND anti-human CCR8 antibody at a single concentration. The method, then: To characterize the binding cite of the CCR8 antibodies, CCR8 antibodies were incubated with Raji-CCR8 cells in a dose-dependent manner in 96-well plates at 4° C. for 30 min. Unbound CCR8 antibodies were washed away and the cells were incubated with a fluorescently-conjugated human monoclonal anti-CCR8 antibody (commercially available) at a single concentration for 30 min at 37° C. Upon completion of the experiment, the binding of the commercially available monoclonal CCR8 antibody was assessed by Flow Cytometry.

Experiment [20] deals with T4, Human CCR8-ECD-Fc. Kind of experiment: binding to HuCCR8-ECD-Fc protein, OD450-570nm.
For experiment [21], the target named is T1, mouse CCR8 expressed on 293T cells. Put plainly: flow cytometry, MoCCR8-293T cells, fold geomean over secondary alone. The source holds these as a separate data set.
In experiment [22] the target is T3, cynomolgus monkey CCR8 expressed on …. Kind of experiment: on-cell affinity, flow cytometry on 293T cells expressing cyno CCR8. The source holds these as a separate data set.
Target sequence in this assay (G7NYJ2 entry or part of it): as above
The target in experiment [23] is T6, amyloid precursor-like protein 2 (APLP2) (UniProt Q06481 32-763, limits assumed).
T6 construct: whole, on cells
Put plainly: on-cell Kd, antibody titration on cells expressing APLP2, flow cytometry.

Experiment [24] addresses T2, human CCR8 (C-C chemokine receptor type …). Kind of experiment: on-cell affinity, flow cytometry on 293T cells expressing human CCR8. The source holds these as a separate data set.
For experiment [25] the target is unchanged. Kind of experiment: flow cytometry, HuCCR8-293T cells, fold geomean over secondary alone. This is another data set of the same source.
In experiment [26] the target is T1, mouse CCR8 expressed on 293T cells. Kind of experiment: flow cytometry, mouseCCR8-293T cells, fold geomean over secondary alone.
For experiment [27], the target named is T5, Cynomolgus CCR8-ECD-Fc. Put plainly: binding to CyCCR8-ECD-huFc protein (so in the source), OD45-570nm (so in the source).
For experiment [28], the target named is T4, Human CCR8-ECD-Fc. Kind of experiment: binding to HuCCR8-ECD-moFc protein (so in the source), OD45-570nm (so in the source).

Where two headings read alike, the source gives them in different places.

T2 sequence (P51685 whole entry): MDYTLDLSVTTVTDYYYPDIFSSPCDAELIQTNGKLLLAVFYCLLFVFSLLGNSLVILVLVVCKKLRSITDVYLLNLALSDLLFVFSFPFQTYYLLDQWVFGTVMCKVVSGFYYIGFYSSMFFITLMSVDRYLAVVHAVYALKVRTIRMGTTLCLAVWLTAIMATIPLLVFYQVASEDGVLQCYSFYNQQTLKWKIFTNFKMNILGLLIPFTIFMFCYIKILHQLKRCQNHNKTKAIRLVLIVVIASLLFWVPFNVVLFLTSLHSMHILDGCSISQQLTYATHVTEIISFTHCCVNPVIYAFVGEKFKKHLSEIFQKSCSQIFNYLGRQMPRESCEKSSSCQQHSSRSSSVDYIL
T6 sequence (Q06481 32-763 limits assumed): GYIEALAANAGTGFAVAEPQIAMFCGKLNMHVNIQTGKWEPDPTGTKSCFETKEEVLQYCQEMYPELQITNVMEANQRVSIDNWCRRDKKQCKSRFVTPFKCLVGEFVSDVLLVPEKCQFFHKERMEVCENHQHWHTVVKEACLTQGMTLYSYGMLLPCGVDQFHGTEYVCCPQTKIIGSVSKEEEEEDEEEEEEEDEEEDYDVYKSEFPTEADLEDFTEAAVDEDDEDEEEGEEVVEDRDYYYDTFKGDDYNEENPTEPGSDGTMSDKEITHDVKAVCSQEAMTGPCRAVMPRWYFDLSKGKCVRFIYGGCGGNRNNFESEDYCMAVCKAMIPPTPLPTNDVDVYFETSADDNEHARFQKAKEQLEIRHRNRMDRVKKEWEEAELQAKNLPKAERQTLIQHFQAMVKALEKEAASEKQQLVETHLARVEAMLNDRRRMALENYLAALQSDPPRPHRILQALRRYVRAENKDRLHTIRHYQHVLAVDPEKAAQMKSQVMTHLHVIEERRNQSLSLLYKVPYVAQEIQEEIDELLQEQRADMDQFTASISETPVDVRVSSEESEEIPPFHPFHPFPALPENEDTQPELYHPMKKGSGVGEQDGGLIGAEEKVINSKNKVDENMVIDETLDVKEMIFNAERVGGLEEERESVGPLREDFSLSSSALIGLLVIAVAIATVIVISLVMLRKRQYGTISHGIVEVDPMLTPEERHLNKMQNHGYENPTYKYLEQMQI

B1: anti-CCR8-2 (antibody, V domains shown)
VH: EVQLLESGGGLVQPGGSLRLSCAAGGFTFSAYTMNWVRQAPGKGLEWVSAISASGGRTYYADSVKGRFTISRDNSKNTLYLQMNSLRAEDTAVYYCARRFARGWFDPWGQGTLVTVSS
VL: QSVLTQPPSVSAAPGQKVTISCSGSSSNIGNNYVSWYQQLPGTAPKLLIYDNNKRPSGIPDRFSGSKSGTSATLGITGLQTGDEADYYCGTWDSSLSAWVFGGGTKLT
notes: Cloned into mammalian expression vectors; human IgG; also called heavy chain H23727
Regarding B1, the binding result in experiment [1] is recorded as “no binding (tested: 10 ug/ml)”; in [4], “binds”; in experiment [5], “binds”. Moreover, the results for the dissociation constant (Kd) in experiment [2] and in experiment [3] were 0.41 nM and 0.94 nM, respectively.

B2: anti-CCR8-2-6 (antibody, V domains shown)
VH: EVQLVESGGGLVQPGRSLRLSCAASGFTFDDYAMHWVRQAPGKGLEWVSGISWNSGSIGYADSVKGRFTISRDNSKNSLYLQMNSLRAEDTALYYCARGRVSYRESLRFDYWGQGTLVT
VL: QSVLTQPPSVSAAPGQKVTISCSGSSSNIGNNYVSWYQQLPGTAPKLLIYDNNKRPSGIPDRFSGSKSGTSATLGITGLQTGDEADYYCGTWDSSLSAWVFGGGTKLT
notes: Human IgG
Consider B2, for which the Kd – broadly, the equilibrium constant for the complex coming apart – in [6] is 4.5 nM; in [9], 1.5 nM. In addition, the EC50 (read off the curve) (commonly the concentration at which the effect is half-maximal) in [7] was roughly 40 ng/mL; in [10], roughly 2 µg/mL; in experiment [11] it was roughly 40 ng/mL. Further, the binding result in experiment [8] was “no binding (tested: 10 ug/ml)”.

B3: anti-CCR8-2-1 (antibody, V domains shown)
VH: EVQLLESGGGLVQPGGSLRLSCAARGFIFSGYTMLWVRQAPGKGLEWVSAITASGGRTYYADSVKGRFTISRDNSKNTLYLQMNSLRAEDTAVYYCARRFARGWFDPWGQGTLVTVSS
VL: QSVLTQPPSVSAAPGQKVTISCSGSSSNIGNNYVSWYQQLPGTAPKLLIYDNNKRPSGIPDRFSGSKSGTSATLGITGLQTGDEADYYCGTWDSSLSAWVFGGGTKLT
notes: Human IgG from a mammalian expression vector
For B3, the binding result in experiment [12] was “no binding (tested: 10 ug/ml)”; in [13], “binds”; in experiment [14], “binds”. Moreover, the dissociation constant Kd in experiment [2] is 0.54 nM; in experiment [3] it was 1.09 nM.

B4: anti-CCR8-2-2 (antibody, V domains shown)
VH: EVQLLESGGGLVQPGGSLRLSCAAGGFTFSAYTMNWVRQAPGKGLEWVSAISASGGRTYYADSVKGRFTISRDNSKNTLYLQMNSLRAEDTAVYYCARRFARGWFDPWGQGTLVT
VL: QSVLTQPPSVSAAPGQRVTISCSGSTSNIGNHYVSWYQQLPRAVPKLVIYDNDKRPSGISDRFSGSRSGTSATLDISGLQAGDEADYYCATWDYSLTAVVFGGGTKLTVL
notes: Heavy chain of anti-CCR8-2 (H23727) cross-paired with a shuffled lambda light chain; Human IgG
As for B4, the Kd in experiment [2] was 0.8 nM; in [3] it was 1.6 nM. Also, in experiment [15], the “EC50 (read off the curve)” value was roughly 1 µg/mL. In addition, the binding result was “binds” in experiment [16], “binds” in [17] and “no binding (tested: 10 ug/ml)” in experiment [18].

B5: anti-CCR8-1 (antibody, human IgG1, V domains shown)
VH: QVQLVQSGAEVKKPGASVKVSCKASGYTFTSYYMHWVRQAPGQGLEWMGIINPSGGSTSYAQKFQGRVTMTRDTSTSTVYMELSSLRSEDTAVYYCARAVRNRFRFDYWGQGTLVTVSS
VL: QSALTQPASVSGSPGQSITISCTGTSSDVGSYNLVSWYQQHPGKAPKLMIYEVSKRPSGVSNRFSGSKSGNTASLTISGLQAEDEADYYCSSYAGSSTFVVFGGGTKLTVL
On to B5, for which, in experiment [19], the “IC50 (read off the curve)” value is roughly 0.02 µg/mL. Moreover, the binding result was “binds” in experiment [20], “no binding (tested: 10 ug/ml)” in experiment [21] and “no binding (tested: 100 nM (top of the affinity axis))” in [23]. Also, the dissociation constant Kd was greater than 50 nM in experiment [22] and 0.41 nM in experiment [24]. Further, the “EC50 (read off the curve)” value in experiment [25] was roughly 1 µg/mL.

B6: anti-CCR8-1-5 (antibody, V domains shown)
VH: QVQLVQSGAEVKKPGASVKVSCKASGYTFTSYYMHWVRQAPGQGLEWMGIINPSGGSTSYAQKFQGRVTMTRDTSTSTVYMELSSLRSEDTAVYYCARGVGNGFRFDYWGQGTLVT
VL: QSALTQPPSVSGSPGQSITISCSGTSSDVGSYNLVSWYQQEPGKAPKLIIYEVNKRPSGVSNRFSGSKSGNTASLTISGLQAEDEADYHCSSYAGSSTYVVFGGGTKLTVL
notes: Parental-1 heavy chain with a shuffled lambda light chain; Human IgG expressed in CHO cells
In the case of B6, the binding result in [26] is recorded as “no binding (tested: 10 ug/ml)”; in experiment [27], “binds”; in [28], “binds”. The figures for the equilibrium dissociation constant (Kd) in experiment [22] and in experiment [24] were 48.6 nM and 1.36 nM, respectively.
